Tested on: TAFA4
Test: TAFA4 synthesis in normal human keratinocyte culture supernatant, dot blot
Format: cell-based
Conditions: 72 hours of incubation, EGF 30 ng/ml, versus KGM medium control set to 100%, statistically significant
Description: Normal human keratinocytes (NHK) have been used in this study. They come from Promocell (Germany). The cells are seeded at 100,000 cells/well in the 24-well plates in KGM. After 24 hours, the cells are incubated with the compound shown in the table below in KBM+P/S medium at 37° C., 5% CO2.
After 72 hours of incubation, the supernatants and protein extracts (obtained from the cell layer) were recovered and stored at −80° C.
After 72 hours of incubation at 37° C., 5% CO2, the supernatants and protein extracts (obtained from the cell layer) are recovered and stored at −80° C.
Before assaying the TAFA4 protein, an evaluation of the toxicity of the compounds is performed using the MTT test. Only the concentrations making it possible to obtain a viability greater than 80% are selected to be quantified by ELISA and dot blot.
The results are expressed as a percentage of TAFA4 expression by standardising the control to 100% (KGM medium control). The data have been obtained from an independent experiment carried out in triplicate.

B1: EGF: epidermal growth factor protein, AF-100-15, Peprotech (protein, UniProt P01133 23-1207, looked up)
Pro-epidermal growth factor: PQHWSCPEGTLAGNGNSTCVGPAPFLIFSHGNSIFRIDTEGTNYEQLVVDAGVSVIMDFHYNEKRIYWVDLERQLLQRVFLNGSRQERVCNIEKNVSGMAINWINEEVIWSNQQEGIITVTDMKGNNSHILLSALKYPANVAVDPVERFIFWSSEVAGSLYRADLDGVGVKALLETSEKITAVSLDVLDKRLFWIQYNREGSNSLICSCDYDGGSVHISKHPTQHNLFAMSLFGDRIFYSTWKMKTIWIANKHTGKDMVRINLHSSFVPLGELKVVHPLAQPKAEDDTWEPEQKLCKLRKGNCSSTVCGQDLQSHLCMCAEGYALSRDRKYCEDVNECAFWNHGCTLGCKNTPGSYYCTCPVGFVLLPDGKRCHQLVSCPRNVSECSHDCVLTSEGPLCFCPEGSVLERDGKTCSGCSSPDNGGCSQLCVPLSPVSWECDCFPGYDLQLDEKSCAASGPQPFLLFANSQDIRHMHFDGTDYGTLLSQQMGMVYALDHDPVENKIYFAHTALKWIERANMDGSQRERLIEEGVDVPEGLAVDWIGRRFYWTDRGKSLIGRSDLNGKRSKIITKENISQPRGIAVHPMAKRLFWTDTGINPRIESSSLQGLGRLVIASSDLIWPSGITIDFLTDKLYWCDAKQSVIEMANLDGSKRRRLTQNDVGHPFAVAVFEDYVWFSDWAMPSVMRVNKRTGKDRVRLQGSMLKPSSLVVVHPLAKPGADPCLYQNGGCEHICKKRLGTAWCSCREGFMKASDGKTCLALDGHQLLAGGEVDLKNQVTPLDILSKTRVSEDNITESQHMLVAEIMVSDQDDCAPVGCSMYARCISEGEDATCQCLKGFAGDGKLCSDIDECEMGVPVCPPASSKCINTEGGYVCRCSEGYQGDGIHCLDIDECQLGEHSCGENASCTNTEGGYTCMCAGRLSEPGLICPDSTPPPHLREDDHHYSVRNSDSECPLSHDGYCLHDGVCMYIEALDKYACNCVVGYIGERCQYRDLKWWELRHAGHGQQQKVIVVAVCVVVLVMLLLLSLWGAHYYRTQKLLSKNPKNPYEESSRDVRSRRPADTEDGMSSCPQPWFVVIKEHQDLKNGGQPVAGEDGQAADGSMQPTSWRQEPQLCGMGTEQGCWIPVSSDKGSCPQVMERSFHMPSYGTQTLEGGVEKPHSLLSANPLWQQRALDPPHQMELTQ
modifications: Pro-epidermal growth factor
notes: epidermal growth factor protein, AF-100-15, Peprotech
- effect on the synthesis of TAFA4 (modulation of TAFA4 in the NHK supernatant): inhibits the synthesis of TAFA4

— patent publication US20260235581A1, “METHOD FOR THE SELECTION OF AN ECOBIOLOGICAL COMPOUND CAPABLE OF INCREASING THE SKIN TOLERANCE THRESHOLD” (NAOS INSTITUTE OF LIFE SCIENCE, priority 2023, published 2026)
